Assay: yeast display, Sf9 membrane polyspecificity reagent, FACS + sequencing; frameworks hold sequencing errors
Summary of the method: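 After 36–48 hours of galactose induction, yeast (Saccharomyces cerevisiae BJ5465) displaying a synthetic nanobody library were stained at 4 °C for 1 hour with 10% biotinylated, detergent-solubilized Sf9 membrane reagent. Streptavidin microbeads enriched the stained cells before FACS sorting into low and high (top ~1%) gates on anti-HA and streptavidin fluorescence. Each clone's polyreactivity label reflects its gate of origin.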

Row | Sequence | polyreactivity (PSR sort gate)
1 | QVQLVESGGGLVQAGGSLRLSCAASGSTFFTNAMAWYRQSPGKERELVASISFSGGRTYYADSVKGRFTISRDNAKNTVYLQMNSLKPEDTAVYYCAARRYRYTRYDYWGQGTQVTVSS | high polyreactivity
2 | QVQLVESGGGLVQPGGSLRLSCAASGFIFYYYAMGWYRQAPGKERELVAVLTESGSSTYYADSVKGRFTISRDNAKNTVYLQMNSLKPEDTAVYYCNADFWPYTGKYDYWGQGTQVTVSS | low polyreactivity
3 | QDQLVESGVGLVQPGGSLRLSCAASGITFRKYAMGWYRQAPGKERELVAAIRWSGTRTYYADSVKGRFTISRDNAKNTDYLQMNRLKPEDTAVYYCATVYGATPGRSGLDYWGQGTQVTVSS | high polyreactivity
4 | QVQLVESGGGLVQAGGSLRLSCAASGIILSPYTMGWYRQAPGKERELVAGISRSGGTTYYADSVKGRFTISRDNAKNTVYLQMNSLKPEDTAVYYCAARKPGWGHEWWVEHYYYWGQGTQVTVSS | low polyreactivity
5 | QVQLVESGGGLVQAGGSLRLSCAASGSIFFPYAMGWYRQAPGKERELVAAISWRGGITYYADSVKGRFTISRDNAKNTVYLQMNSLKPEDTAVYYCAADGPYTGDGALDYWGQGTQVTVSS | high polyreactivity
6 | QVQLVESGGGLVQAGGSLRLICAASGLIFVRYAMGWYRQAPGKERELVATITWSGGTTYADSVKGRFTISRDNAKNTVYLQMNSLNPEDTAVYYCAVEWPAWTDSDYPVGGHAFGYWGQGTQVTVSS | low polyreactivity
7 | QVQLLESGGGLVQAGGSLRLSCAASGSTFSYNAMGWYIQAPGKERELVAAIDRSVSTNYADSVKGRFTISRDNAKNTVYLQMNSLKPEDTEVYYCNARHPTDDIVIYDYWGQGTQVTVSS | low polyreactivity
8 | QVQLVESGGGLVQAGGSLRLSCAASGSISRQYALGWYRQAPGTERELVAAITVRGGSTYYADSVKGRFTISRDNAKNTVYLQMNSLKPEDTAVYYCAKYTRYSASYDYWGQGTQVTVSS | high polyreactivity
9 | QVQLVESGGGFLQAGGSLRLSCAASGRIFNYYAMGWYRQAPGTERELVAGINWSGTRTYYADSVKGRFTISRDNAKNTVYLQMNSLKPEDTAVYYCNAGRTWRAFTGDEYWGQATQVTVSS | high polyreactivity
10 | QVQLVESGGGLVQAGGSLRLSCAASGRIFSVYAMGWYRQAPGKERELVASIRSRGSSTYYADSVKGRFTISRDNAKNTVYLQMNSLKPEDTAVYYCAVDVLTVGQSYDHWGQGTQVTVSS | high polyreactivity
11 | QVQLEDSGGGLVQAGGSLRLSCAASGRTSVGYVMGWYRQAPGKERELVAAISASGGSTYYADSVKGRFTISRDNAKNTVYLQMNSLKPEDTAVYYCNAPVYVPYDYWGQGTQVTVSS | low polyreactivity
12 | QVQLVESGGGLVQAGGSLRLSCASSGRTFGINAMGWYRQAPGKERELVAVISFGDGGTYYADSVKGRFTISRDNAKNTVYLQMNSLNPEDSAVYYCATDYQSTSVWGGHFVINPYDYWGQGTQVTVSS | low polyreactivity
13 | QVQLVESGGGLVQAGGSLRLSCAASGRIFYNNAMGWYRQAPGKERELVAAIDWPGGSTDYADSVKGRFTISRDNAKNTVYLQMNSLKPEDTAVYYCVAGHVPYWHGNSYDYWGQGTQVTVSS | low polyreactivity
14 | QVQLVESGGGLVQAGGSLRLSCAASGRIFNSNTMGWYRQAPGKERELVAAITYSGGSTYYADSVKGRFTISRDNAKNTVYLQMNSLKPEDTAVYYCAADFWEYDGPWYANDYDSWGQGTQVTVSS | low polyreactivity
15 | QVQLVESGGGLVQAGGSLRLSCAASGSIFFYNAMGWYRQAPGKERELVAAISRGGNTNYADSVKGRFTISRDNANNTVYLQMNSLKPEDTAVYYCNAESLSGAHGYWGQGTQVTVSS | low polyreactivity
16 | QVQLVESGGGLVQPGCSLRLSCAASGSTFESYAMGWYRQAPGKERELVAAISWRVGSTYYADSVKGRFTISRDNAKNTVYLQMNSLKPEDNAVYYCASKGWYSHYGGYDYWGQGTQVTVSS | low polyreactivity
17 | QVQLVESGGGLVQAGGCLRLSCAASGSIFCVYVMGWYRQEPVKERELVAAITRGASTNYADSVKGRFTISRDNAKNTVYLQMNSLKPEDTAVYYCAARQVSVSGHQYGYWGQGTQVTVSS | low polyreactivity

Source: the nanobody polyreactivity screen of Harvey et al. (2022)
